Measured values: the Human Domainome abundance scans (Beltran et al. 2025)
± gives the uncertainty stated by the source.

B1: Double-stranded RNA-binding protein Staufen homolog 1, residues 183 to 249; numbered along this chain, O95793 (parent)
chain: KSEISQVFEIALKRNLPVNFEVARESGPPHMKNFVTKVSVGEFVGEGEGKSKKISKKNAAIAVLEEL

Variants of: B1
Test: abundance fitness (aPCA) (normalised: wild type 0, dead -1); higher = more abundant; growth selection in yeast, the domain comes from the species named
Conditions: Homo sapiens

L16R and L16F are within error of each other in abundance fitness: -0.587 ± 0.047 for the first, -0.424 ± 0.15 for the second.

Going from L16N to L16Q, the abundance fitness rises from -0.716 ± 0.14 to -0.128 ± 0.082.

Going from L16H to L16M, the abundance fitness rises from -0.708 ± 0.12 to -0.131 ± 0.077.

First: L16I
Second: L16G
The abundance fitness of the first is higher: -0.196 ± 0.11 for the first, -0.863 ± 0.079 for the second.

S26F and M31V are within error of each other in abundance fitness: -0.348 ± 0.29 for the first, -0.099 ± 0.042 for the second.

M31P and M31I are within error of each other in abundance fitness: -0.132 ± 0.051 for the first, -0.12 ± 0.061 for the second.

First: M31E
Second: M31F
The abundance fitness of the first is higher: 0.103 ± 0.049 for the first, -0.263 ± 0.059 for the second.

Compared with M31S, R14N is lower in abundance fitness: 0.113 ± 0.038 for the first, -0.179 ± 0.1 for the second.

Compared with R14P, R14F is higher in abundance fitness: -0.594 ± 0.072 for the first, -0.232 ± 0.15 for the second.

Compared with R14A, V7E is lower in abundance fitness: -0.204 ± 0.057 for the first, -0.486 ± 0.06 for the second.

Compared with V7W, V7Q is higher in abundance fitness: -1.13 ± 0.081 for the first, -0.681 ± 0.062 for the second.

First: V7H
Second: V7C
The abundance fitness of the first is lower: -0.857 ± 0.14 for the first, -0.607 ± 0.077 for the second.

Compared with L67G, L67C is lower in abundance fitness: -0.438 ± 0.066 for the first, -0.693 ± 0.13 for the second.

Going from L67W to L67Y, the abundance fitness falls from -0.465 ± 0.093 to -0.873 ± 0.24.

Going from L67M to L67D, the abundance fitness falls from 0 ± 0.058 to -0.706 ± 0.35.

I54T and I54Q are within error of each other in abundance fitness: -0.132 ± 0.049 for the first, -0.052 ± 0.042 for the second.

I54R and V38I are within error of each other in abundance fitness: -0.23 ± 0.033 for the first, -0.168 ± 0.09 for the second.

V38F and V38M are within error of each other in abundance fitness: -0.352 ± 0.12 for the first, -0.231 ± 0.06 for the second.

V38T and V38D are within error of each other in abundance fitness: -0.481 ± 0.069 for the first, -0.57 ± 0.097 for the second.

Compared with V38P, E48A is higher in abundance fitness: -0.67 ± 0.051 for the first, 0.001 ± 0.046 for the second.

E48H and E48W are within error of each other in abundance fitness: -0.061 ± 0.11 for the first, -0.011 ± 0.043 for the second.

E48M and E48T are within error of each other in abundance fitness: -0.013 ± 0.057 for the first, 0.037 ± 0.058 for the second.

E48L and E48S are within error of each other in abundance fitness: -0.044 ± 0.044 for the first, 0.007 ± 0.044 for the second.

First: Q6P
Second: Q6S
The abundance fitness of the first is lower: -0.697 ± 0.038 for the first, -0.255 ± 0.026 for the second.

Q6R and E42H are within error of each other in abundance fitness: -0.097 ± 0.026 for the first, 0.014 ± 0.11 for the second.

Compared with E42D, E42F is lower in abundance fitness: -0.137 ± 0.093 for the first, -0.355 ± 0.093 for the second.

E42T and E42K are within error of each other in abundance fitness: -0.048 ± 0.051 for the first, -0.046 ± 0.057 for the second.

E42Y and E42A are within error of each other in abundance fitness: -0.131 ± 0.12 for the first, 0.016 ± 0.056 for the second.

Going from F43E to F43D, the abundance fitness falls from -0.44 ± 0.063 to -0.628 ± 0.1.

Going from F43C to F43A, the abundance fitness rises from -0.262 ± 0.085 to -0.124 ± 0.047.

Going from F43H to F43R, the abundance fitness falls from 0.014 ± 0.099 to -0.482 ± 0.036.

First: F43T
Second: N58C
The abundance fitness of the first is higher: -0.195 ± 0.058 for the first, -0.451 ± 0.072 for the second.

N58W and N58P are within error of each other in abundance fitness: -0.868 ± 0.087 for the first, -0.763 ± 0.055 for the second.

Compared with N15V, N15T is higher in abundance fitness: -0.785 ± 0.069 for the first, -0.431 ± 0.087 for the second.

N15E and N15Q are within error of each other in abundance fitness: -0.231 ± 0.054 for the first, -0.144 ± 0.1 for the second.

A11R and A11Y are within error of each other in abundance fitness: -0.829 ± 0.063 for the first, -0.967 ± 0.14 for the second.

Compared with A11K, A11S is higher in abundance fitness: -0.633 ± 0.068 for the first, -0.358 ± 0.048 for the second.

A11E and A11D are within error of each other in abundance fitness: -0.822 ± 0.079 for the first, -0.679 ± 0.08 for the second.

A11W and A11L are within error of each other in abundance fitness: -0.91 ± 0.095 for the first, -0.9 ± 0.079 for the second.

Compared with P29S, P29F is lower in abundance fitness: -0.04 ± 0.04 for the first, -0.28 ± 0.082 for the second.

P29D and P29M are within error of each other in abundance fitness: -0.051 ± 0.097 for the first, -0.114 ± 0.046 for the second.

Variant P29T has an abundance fitness of -0.111 ± 0.045.
